For the assay, the target named is CD70 (human) (UniProt P32970). Description: cell-based or functional assay.
Sequence of CD70 (human) (P32970 whole entry): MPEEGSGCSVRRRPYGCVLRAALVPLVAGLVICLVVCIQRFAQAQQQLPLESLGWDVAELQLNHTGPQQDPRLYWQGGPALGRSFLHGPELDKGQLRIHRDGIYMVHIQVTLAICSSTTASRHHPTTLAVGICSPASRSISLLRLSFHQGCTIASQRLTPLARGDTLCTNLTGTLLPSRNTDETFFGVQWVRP

In turn, “anti-CD70 monoclonal antibody (HNE51) (DAKO)” showed an IgG synthesis by purified B cells stimulated with LPS (control without T cells) of 125 µg/mL.

These data come from patent publication US20080182247A1.
